Results from patent US8268585B2.

B1: 25 kD endoglucanase (pI 4.1), C1-EG5, Family 45, Chrysosporium lucknowense (enzyme)
chain: QLSGSGQTTRYWDCCKPSCAWPGKGPSSPVQACDKNDNPLNDGGSTRSGCDAGGSAYMCSSQSPWAVSDELSYGWAAVKLAGSSESQWCCACYELTFTSGPVAGKKMIVQATNTGGDLGDNHFDLAIPGGGVGIFNACTDQYGAPPNGWGDRYGGIHSKEECESFPEALKPGCNWRFDWFQNADNPSVTFQEVACPSELTSKSGCSR
B2: 43 kD endoglucanase (pI 4.2), C1-EG6, Family 6, Chrysosporium lucknowense (enzyme)
chain: QASAGCASAVTLDASTNVFQQYTLHPNNFYRAEVEAAAEAISDSALAEKARKVADVGTFLWLDTIENIGRLEPALEDVPCENIVGLVIYDLPGRDCAAKASNGELKVGELDRYKTEYIDKIAEILKAHSNTAFALVIEPDSLPNLVTNSDLQTCQQSASGYREGVAYALKQLNLPNVVMYIDAGHGGWLGWDANLKPGAQELASVYKSAGSPSQVRGISTNVAGWNAWDQEPGEFSDASDAQYNKCQNEKIYINTFGAELKSAGMPNHAIIDTGRNGVTGLRDEWGDWCNVNGAGFGVRPTANTGDELADAFVWVKPGGESDGTSDSSAARYDSFCGKPDAFKPSPEAGTWNQAYFEMLLKNANPSF

Target: Dyed casein

| Molecule | activity toward dyed casein, 50° C., arbitrary units/mg (arbitrary units/mg) |
| --- | --- |
| 55 kD cellobiohydrolase (pI 4.4), CBH1, Chrysosporium lucknowense (enzyme) | 0 |
| B1 | 0 |
| B2 | 0 |
